Test results taken from US20240400689A1.

Experiments:
[1] = target: human CD276 protein (human) (UniProt Q5ZPR3); assay: FACS on SKOV3 cells
[2] = target: human CD276 protein (human) (UniProt Q5ZPR3); assay: cell-based or functional assay
[3] = target: T1, HUMAN B7H3 (Biacore analyte) (human) (UniProt Q5ZPR3); assay: SPR, Biacore 8K, antibody captured, B7H3 as analyte, 1:1 binding
T1 sequence (looked up): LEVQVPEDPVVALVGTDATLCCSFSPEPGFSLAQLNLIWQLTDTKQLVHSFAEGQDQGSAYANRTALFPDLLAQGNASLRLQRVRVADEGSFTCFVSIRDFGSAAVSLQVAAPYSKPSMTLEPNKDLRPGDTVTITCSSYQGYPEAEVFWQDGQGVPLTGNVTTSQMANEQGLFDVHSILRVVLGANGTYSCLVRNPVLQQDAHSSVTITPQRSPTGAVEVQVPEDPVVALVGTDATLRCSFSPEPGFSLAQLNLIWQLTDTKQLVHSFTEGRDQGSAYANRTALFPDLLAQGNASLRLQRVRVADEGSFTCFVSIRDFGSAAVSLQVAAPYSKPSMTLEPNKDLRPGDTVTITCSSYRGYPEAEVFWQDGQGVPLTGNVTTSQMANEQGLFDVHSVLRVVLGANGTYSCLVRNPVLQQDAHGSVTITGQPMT

[4] = target: mouse CD276 protein (mouse) (UniProt Q8VE98); assay: FACS on CHO-S-mCD276 cells
Chain of mouse CD276 protein (mouse) (Q8VE98 29-316): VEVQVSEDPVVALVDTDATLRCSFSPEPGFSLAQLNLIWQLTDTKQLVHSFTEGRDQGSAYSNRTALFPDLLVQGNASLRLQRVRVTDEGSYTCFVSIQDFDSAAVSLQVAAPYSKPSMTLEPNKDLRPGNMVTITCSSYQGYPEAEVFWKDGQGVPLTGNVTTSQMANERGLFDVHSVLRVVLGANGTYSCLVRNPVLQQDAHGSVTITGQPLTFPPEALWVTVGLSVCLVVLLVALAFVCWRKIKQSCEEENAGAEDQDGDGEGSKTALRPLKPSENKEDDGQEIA

| EC50 [1] | MFI (Max) [1] | EC50 of antibody induced ADCC effect on SKOV3 [2] | EC50 of antibody induced CDC effect [2] | Kd [3] | koff [3] | kon [3] | FACS MFI [4] | Binder | Top cytotoxicity (%), CDC [2] |
| --- | --- | --- | --- | --- | --- | --- | --- | --- | --- |
| 0.985 mg/L | 830 | 0.0864 mg/L | 7.28 nM | 3.8 nM | 0.000486 s⁻¹ | 128000 M⁻¹ s⁻¹ | – | Enoblituzumab (antibody, part only; not given: constant regions, V domains shown, not shown: another chain or arm of the molecule) VH: EVQLVESGGGLVQPGGSLRLSCAASGFTFSSFGMHWVRQAPGKGLEWVAYISSDSSAIYYADTVKGRFTISRDNAKNSLYLQMNSLRDEDTAVYYCGRGRENIYYGSRLDYWGQGTTVTVSS VL: DIQLTQSPSFLSASVGDRVTITCKASQNVDTNVAWYQQKPGKAPKALIYSASYRYSGVPSRFSGSGSGTDFTLTISSLQPEDFATYYCQQYNNYPFTFGQGTKLEIK | 80.1% |
| – | – | – | – | – | – | – | 3170 | 10-B9-D10-A12 (antibody, V domains shown) VH: EVQLQESGPELVRPGVSVKISCKGSGYTFTDYTMHWVKLSHAKSLEWIGVISTYYGNTNYNQKFKGKATLTVDKSSSTAYMELARLTSEDSAIYYCARASYGSGYGPYYWYFDVWGAGTTVTVSS VL: DIQMTQSPASLFASVGETVTITCRASEKIYSYLAWYFQKQGKSPQFLVYNANALAEGVPSRFSGSGSGTQFSLKINSLQPEDFGTYYCQHHYGTPVTFGAGSKLELK | – |
